Assay [1] addresses T1, PRAME (PRAME-004) peptide on HLA-A*02:01 (human).
T1 peptide: SLLQHLIGL
Put plainly: IFN-gamma release; RNA-electroporated CD8+ T cells; T2 cells loaded with 10 µM to 10 pM peptide (FIG. 17); full-length, on cells.

The target in assay [2] is T1, PRAME (PRAME-004) peptide on HLA-A*02:01. Description: IFN-gamma release; RNA-electroporated CD8+ T cells; T2 cells loaded with 10 µM to 10 pM peptide (FIG. 18); full-length, on cells.
For assay [3] the target is unchanged. Put plainly: multimer staining.

B1: R16P1E8 (TCR, V domains shown)
Valpha: QKEVEQDPGPLSVPEGAIVSLNCTYSNSAFQYFMWYRQYSRKGPELLMYTYSSGNKEDGRFTAQVDKSSKYISLFIRDSQPSDSATYLCAMSEAAGNKLTFGGGTRVLVKP
Vbeta: EAGVAQSPRYKIIEKRQSVAFWCNPISGHATLYWYQQILGQGPKLLIQFQNNGVVDDSQLPKDRFSAERLKGVDSTLKIQPAKLEDSAVYLCASSYTNQGEAFFGQGTRLTVV
For the molecule B1, the EC50 of peptide in assay [1] was ~1000 nM.

B2: R17P1D7 (TCR, V domains shown)
Valpha: AQTVTQSQPEMSVQEAETVTLSCTYDTSESDYYLFWYKQPPSRQMILVIRQEAYKQQNATENRFSVNFQKAAKSFSLKISDSQLGDAAMYFCAYRWAQGGSEKLVFGKGTKLTVNP
Vbeta: EADIYQTPRYLVIGTGKKITLECSQTMGHDKMYWYQQDPGMELHLIHYSYGVNSTEKGDLSSESTVSRIRTEHFPLTLESARPSHTSQYLCATELWSSGGTGELFFGEGSRLTVL
In assay [2], B2 came in with an EC50 of peptide of 1.83 nM.

B3: R17P1A9 (TCR, V domains shown)
Valpha: QKEVEQNSGPLSVPEGAIASLNCTYSDRGSQSFFWYRQYSGKSPELIMSIYSNGDKEDGRFTAQLNKASQYVSLLIRDSQPSDSATYLCAVLNQAGTALIFGKGTTLSVSS
Vbeta: DSGVTQTPKHLITATGQRVTLRCSPRSGDLSVYWYQQSLDQGLQFLIQYYNGEERAKGNILERFSAQQFPDLHSELNLSSLELGDSALYFCASSAETGPWLGNEQFFGPGTRLTVL
Turning to B3, the binding result in assay [3] is “recognises”.

(Values after patent US20200123221A1 (published 2020).)
